{"source": "paper PMC2883074", "about": "(Molecular Microbiology, 2010)", "proteins": {"B1": {"name": "full-length Helicobacter pylori MinE (natural protein, UniProt O25099 1-77, looked up)", "chain": "MSLFDFFKNKGSAATATDRLKLILAKERTLNLPYMEEMRKEIIAVIQKYTKSSDIHFKTLDSNQSVETIEVEIILPR"}, "B2": {"name": "Selenomethionine (Se-Met)-labelled HpMinE (natural protein, Helicobacter pylori, UniProt O25099 1-77, looked up)", "chain": "B1 chain", "modifications": "selenomethionine (Se-Met-labelled)"}, "B3": {"name": "HpMinEΔN (residues 29-77 of HpMinE) (domain or fragment, Helicobacter pylori, UniProt O25099 29-77, looked up)", "chain": "TLNLPYMEEMRKEIIAVIQKYTKSSDIHFKTLDSNQSVETIEVEIILPR"}, "B4": {"name": "EcMinEΔN (residues 32-88 of EcMinE) (domain or fragment, E. coli, UniProt P0A734 32-88, looked up)", "chain": "SDAEPHYLPQLRKDILEVICKYVQIDPEMVTVQLEQKDGDISILELNVTLPEAEELK"}}, "key": {"[1]": {"molecular_target": "the molecule itself", "experiment": "SEC"}, "[2]": {"molecular_target": "the molecule itself", "experiment": "crystal structure"}, "[3]": {"molecular_target": "the molecule itself", "experiment": "SEC", "remark": "listed apart in the source"}}, "note": "Like-named read-outs stand apart in the source and are kept apart here."}
{"protein": "B1", "values": [{"measurement": "stoichiometry N", "setting": "[1]", "value": 2}]}
{"protein": "B2", "values": [{"measurement": "binding result", "setting": "[2]", "value": "binds"}]}
{"protein": "B3", "values": [{"measurement": "stoichiometry N", "setting": "[3]", "value": 3}]}
{"protein": "B4", "values": [{"measurement": "stoichiometry N", "setting": "[3]", "value": 4}]}
